# ± gives the uncertainty stated by the source.
# Assay: amyloid nucleation score (Sup35N fusion, yeast selection) (log enrichment); library NNK2; higher = more nucleation; inactive = no reads after selection
# Outline: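 Peptides of 20 random codons, each fused to Sup35N, were expressed in psi-negative yeast. Cells were induced with 100 μM copper sulfate for 24 hours and grown 7 days at 30°C on medium lacking adenine and uracil, and plasmid inserts before and after selection were Illumina-sequenced. Nucleation scores are DiMSum log enrichments of output over input reads, centred on the mode score of non-aggregating sequences, and sequences under 100 input reads were excluded.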
row,Substance,amyloid nucleation score
1,GVREYMH,0.544 ± 0.28
2,GVRWYAMRPEVGYL,0.155 ± 1.1
3,GVRYSFSTTRKFTELSFNIC,3 ± 0.16
4,GVSSNGSLCWCVFMKVPAVC,2.98 ± 0.078
5,GVSVV,inactive
6,GVVNLTD,3.01 ± 0.061
7,GVVYLGNRLISFSRSLSLKT,0.387 ± 0.45
8,GWCVHSKKDGKYCRSYTRQF,-0.136 ± 0.23
9,GWFMNCTLVVKVTDTEIGLY,inactive
10,GWKDGLAASSF,1.01 ± 0.2
11,GWRKSLNWCVYVGEGASIVV,0.517 ± 0.25
12,GWVKTLEGLLMCLVVCNTVM,2.98 ± 0.12
13,GYCYYVPFMVGP,0.817 ± 0.8
14,GYFAYRVICNVVGDTGFSLA,-0.06 ± 1.1
15,GYGRLIWLGACRL,1.18 ± 0.48
16,GYMYCISATCRDLSKGRTGT,-0.221 ± 0.39
17,GYNGMGRCINWVRKYRWLLW,5.355 ± 0.033
18,GYNLKILESIMEGSAGLMCT,-0.779 ± 0.33
19,GYRFEAPWYNGLTVYGRIFC,-1.1 ± 0.55
20,GYRYHLWHVT,inactive
21,GYSTRIGASFGLGPVGCSAR,3.06 ± 0.087
22,GYYMRLS,inactive
23,HASTEIGSWL,0.552 ± 0.42
24,HASWIGISLS,-0.395 ± 0.74
25,HCCHRFYMDSEIACTCFTTM,-0.523 ± 0.56

row,Substance,amyloid nucleation score
1,HCGMAYFH,-0.111 ± 0.32
2,HCHAVDSLNVHFKEFIHRMN,inactive
3,HCSFCVIVGFNRCDALGSHR,7.03 ± 0.075
4,HCSFG,2.32 ± 0.12
5,HDGICSNSGVVSINKNGNYD,1.27 ± 0.29
6,HDGVNCSYRSDSIYIVENTH,inactive
7,HDKLVTRLYWYSKCVVKGLN,-0.375 ± 1.1
8,HDTESTLVTVLRAFLHRCDY,0.411 ± 0.56
9,HDVFVTYTTLLITARLMRRP,1.86 ± 0.27
10,HEECIGSCCYGRWSCGTTLW,4.84 ± 0.054
11,HEGIDVSMPHQDRTAADNLA,0.409 ± 0.53
12,HELAIISN,2.97 ± 0.17
13,HETLQASIFVLLIHTKYHES,-1.58 ± 1
14,HFCVLLLSFKNKILNYAFMH,-0.393 ± 1.1
15,HFFTQY,2.95 ± 0.1
16,HFGDIDKYRAADAGVVERNP,4.25 ± 0.083
17,HFLSFSMGWNSC,4.82 ± 0.063
18,HFMSYAAWAREWSVEPQ,0.967 ± 0.66
19,HFNFCLWDNENYRNGMVWCR,0.042 ± 0.5
20,HFPHGHDFVFTVCYDTHSCL,0.729 ± 0.15
21,HFSFTPFRTWV,-0.527 ± 0.27
22,HFYCMV,4.51 ± 0.11
23,HGHLHYLMNR,-0.031 ± 1
24,HGLEVVQMASSLELQARKKA,0.049 ± 0.34
25,HGMYKTG,2.54 ± 0.11

row,Substance,amyloid nucleation score
1,HHAHGFRPIGMCSCISMDPS,7.87 ± 0.059
2,HHGQTHHLMWNWIF,4.27 ± 0.1
3,HHLLPWGWRPVYGSRLRCTL,4.23 ± 0.049
4,HHRIFGMIDELSKVTNIHFG,-0.434 ± 0.74
5,HIFVVGMDRSVVSRSVEP,inactive
6,HIGILTT,1.64 ± 0.32
7,HIGIWGRQTLR,3.55 ± 0.049
8,HIGSVVVELLSVRLLWHCMH,5.94 ± 0.088
9,HIMIFWYPVLTIKVQYDVGV,inactive
10,HKEEV,0.163 ± 0.53
11,HKFIPAVVSCMQGNMKNYWS,-0.166 ± 0.5
12,HKLCGYIYIRVIRSWKWYKQ,-0.306 ± 0.63
13,HKRHTLK,-0.809 ± 1.1
14,HLCGC,inactive
15,HLCSCTMWGPHNRGFYYHWC,inactive
16,HLDGWRNFDYDIS,-2.3 ± 0.78
17,HLRWARRIGVCTVFYLSRIC,0.483 ± 0.57
18,HLSCDWVLIDEGLACYM,-0.586 ± 0.54
19,HLSFGFRRNRR,0.967 ± 0.2
20,HLTSKVTGASIKVTKVNYLD,-1.25 ± 0.64
21,HLVVSMVRTLVCHFCRFDVS,1.28 ± 0.41
22,HLYCRALILLVVLPGYTQLL,-1.07 ± 0.78
23,HMEKWCSSTMSRLLSVQLAK,0.771 ± 0.29
24,HMHQPSSPHLLLCV,-0.47 ± 0.46
25,HNGVCSSRARVSLWAGRCWK,0.742 ± 0.22

row,Substance,amyloid nucleation score
1,HNLMCYGWNFLSVSVVDNCD,6.552 ± 0.05
2,HNLNKTGDKRFYTLFVSSPR,0.012 ± 1
3,HNPSIAARCGGICYDNITVW,0.838 ± 0.51
4,HNSCVSITSKLQCPLRTVSG,0.252 ± 0.65
5,HPGMVVIAE,3.97 ± 0.075
6,HPHKS,-0.325 ± 0.76
7,HQRGMNLISFVWHSENVRIW,1.07 ± 0.61
8,HQVLYTIAISFTIELAVIIA,inactive
9,HRLQLPHHRKGKWVLLMWGV,-0.44 ± 0.41
10,HRVAVTKYATRYIPLIMLNW,-0.354 ± 0.49
11,HRVQSGLCSKNSRE,2.96 ± 0.15
12,HRVRSDDLVKAWPQWNALGA,1.18 ± 0.12
13,HRVYEFIKPLGPGAHTFVFT,0.097 ± 1.1
14,HRYEKSAHTVVWSIMVFS,0.033 ± 0.45
15,HSFIGSRIVSFGFDVRGRWA,4.91 ± 0.059
16,HSVKCDSLGFLPFSTYWLRI,-0.047 ± 0.79
17,HTKVRGKRLCGDWSVRISCS,0.733 ± 0.29
18,HTSVFFRKKPGSCISRSLSL,inactive
19,HTYNLSKR,-1.1 ± 0.62
20,HVCCFKSQDRCYWVG,-0.447 ± 0.63
21,HVDIRLWTFNRSRFIGVFGV,2.75 ± 0.079
22,HVFADERMDVGGSITVTARG,0.164 ± 1.1
23,HVFFHFRDVTSGL,4.64 ± 0.065
24,HVNWVKKSSWLIGT,0.62 ± 0.74
25,HVTMCKYYFWYMEIVVVKP,-0.456 ± 0.55

row,Substance,amyloid nucleation score
1,HVTRVSVLQVLELHSTMTGV,4.09 ± 0.09
2,HVVLTLGLRISQHRLLRYKK,5.64 ± 0.095
3,HVYIGVNLKRENKTHQTSSV,4.77 ± 0.064
4,HVYYTVNLVLVNLYPLYFFT,5.855 ± 0.041
5,HWDLIGGVL,-0.176 ± 1.1
6,HWLRSGWELNVRVLGPQATF,0.982 ± 0.34
7,HWRFFCMDHNFILSVKDVVA,inactive
8,HWWLIIRDLKASRIDVRQWE,inactive
9,HYCRHLLVLHSSKYARSHSS,-0.338 ± 0.37
10,HYFEIVA,-0.315 ± 0.45
11,HYLAFVCIIFSLLRLITQPM,2.53 ± 0.18
12,HYLEGYRFDLEMIVCICQKG,5.369 ± 0.049
13,HYPQYCFFARKIFITCGYME,5.22 ± 0.061
14,HYRIWVMHMWDCYWTTNFHG,-0.393 ± 0.63
15,IADQTMISRYSRS,5.89 ± 0.084
16,IAFFGLCMSRVSLGVLEMRL,2.21 ± 0.18
17,IAITDFVLVSVLHSKWCIF,-0.246 ± 0.5
18,IAKMSFAINNDIYNCRFIST,2.46 ± 0.11
19,IAKPSVRHMYSFHVVDKTGH,inactive
20,IAPLWPYLNPYRVIFF,inactive
21,IAVAKYLTLKDVVLNSWNSY,7.624 ± 0.036
22,IAVYTYLAGAWKHLETLAFP,3.8 ± 0.1
23,ICFIVSSFRY,2.58 ± 0.23
24,ICFNDILQFTS,-0.498 ± 0.44
25,ICFVFF,-0.777 ± 1

row,Substance,amyloid nucleation score
1,ICIFIWIDASRACKPNIQCS,5.58 ± 0.062
2,ICIFSSCERSMGHRRC,0.141 ± 0.38
3,ICILDYND,-1.15 ± 0.76
4,ICRLFVR,-0.454 ± 0.31
5,ICSKRIFFSA,-0.772 ± 1.1
6,IDERATSEDSSGRKDSVTFL,-0.306 ± 0.28
7,IDKGSKVFTGLGLLFCSKYF,7.2 ± 0.074
8,IDLNLYERFDFQFTVSVPSV,inactive
9,IDLWWSATHVTLLLSAPGIY,-1.09 ± 0.42
10,IDSADVSIVRCKTQVRRIMR,5.62 ± 0.063
11,IDYVGYMKWMMV,0.016 ± 0.38
12,IEGTVRYYPVSNFT,inactive
13,IEQFTVNLLTRRLKNSMGQN,-0.544 ± 0.79
14,IEQVRDECHYTDVATLIEMM,0.675 ± 0.24
15,IEVRRKPSLDLKLDGEGIVR,1.37 ± 0.32
16,IFDVNCPS,-0.196 ± 1.1
17,IFENI,inactive
18,IFGLNHWTVFSSPINLSTSG,inactive
19,IFHHPNHIHVDQFSPLLFYE,-0.64 ± 0.79
20,IFIPSFWGIFTIPM,-1.01 ± 1
21,IFIVYILCFFMREIFAPI,3.77 ± 0.11
22,IFRLELNTIIPPSQYNASAH,4.57 ± 0.1
23,IFSISLLMAQYIGVWFFRRV,inactive
24,IFVCAMV,0.395 ± 0.65
25,IFVGIIKIVCWNNEGVDDLQ,4.61 ± 0.063

row,Substance,amyloid nucleation score
1,IFVLNKQNYLRIYNVPPLLI,5.667 ± 0.05
2,IGARFKFNQWTSYYIQRF,inactive
3,IGDYLRLELVL,0.187 ± 0.74
4,IGISLSSRPCYTFFSRLRWI,-0.387 ± 0.38
5,IGKSCRLRA,0.609 ± 0.46
6,IGLKYSLWVVGFEVRLRCAD,3.86 ± 0.07
7,IGSVGTPWE,-0.042 ± 0.45
8,IGVSNLLCMFTLDPKGIQDG,8.488 ± 0.056
9,IGVYSVWNFMMVRSADARFN,3.4 ± 0.16
10,IHMWYSDG,-1.25 ± 0.75
11,IHRGWSWMQSRILDVGSR,0.162 ± 0.54
12,IHSNEDFVRSESGVLDAYSV,-0.627 ± 0.42
13,IHVPIQ,-0.046 ± 0.54
14,IHWGLIIGSCRF,1.56 ± 0.27
15,IIDYFSN,-0.953 ± 1.1
16,IIFDNFLEMVAILWLLVCCY,-1.66 ± 0.76
17,IIIGFWVCWNSIASWSIVGR,-1.78 ± 1.1
18,IIINFRVAINDWGFLSVSID,5.515 ± 0.027
19,IIPQNSQDQNRDISVKAFSV,-0.937 ± 0.61
20,IISPVGVRMAYL,0.176 ± 0.37
21,IISTIT,1.49 ± 0.14
22,IITYVLLFNKFNTGVCE,7.393 ± 0.049

# From the supplement of paper PMC12042874
